Experimental data: the supplement of paper PMC9170038

System: MS2 coat protein
Assay: apparent KD of MS2 coat protein; designed switch direction (-1 OFF switch, 1 ON switch): -1; higher = weaker reporter binding
In short: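 The apparent KD reported per design is the median over clusters of curve fits to normalised cluster fluorescence. The RNA switches were transcribed on Illumina chips by stalled E. coli RNA polymerase. SNAP-549-labelled MS2 coat protein was titrated from 0.7 or 1.5 nM, doubling up to 3 µM, in Tris-HCl pH 7.5 buffer containing KCl, MgCl2, BSA, DTT, tRNA and Tween-20, with no input, 200 uM small-molecule ligand, or an oligonucleotide input.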

[1] = Eterna round: R95, input ligand: FMN 200 uM
[2] = Eterna round: R95, input ligand: microRNA oligo, concentration not stated
[3] = Eterna round: R95, input ligand: none
[4] = input ligand: microRNA oligo, concentration not stated

UAGGUACAUGAGGAUCACCCAUGUGAGGAUAUAGUUGAAGAUUGCGAGAGGUUGAGGACUAGAAGGCACAGUGG [JR_Exclu1_Sub038] (puzzle: Exclusion 1)
apparent KD of MS2 coat protein [1]: 137 nM
apparent KD of MS2 coat protein [2]: 63.5 nM
apparent KD of MS2 coat protein [3]: 90.2 nM

CUUUUGUGAGGAUAUCAGUAGUAAAUAAAUAUAAUUACUACUGAGAAGGCACAUGAGGAUCACCCAUGUUCCUC [salish99_ex3_r3_082] (puzzle: Exclusion 4)
apparent KD of MS2 coat protein [2]: 38.2 nM

ACUCGAGAAGGAUAUACAUGAGGAUCACCCAUGUUAACUCCCAAGGGCAUCUUAAAAGGUAGAAGGUCUUGAAA [Laonbeus] (puzzle: Exclusion 3)
apparent KD of MS2 coat protein [1]: 23.7 nM
apparent KD of MS2 coat protein [2]: 14 nM
apparent KD of MS2 coat protein [3]: 14.1 nM

UGUGUGAGACAGGAUAUGCCAGAUAUAUUACUGGUAGAAGGGUCUACAUGAGGAUCACCCAUGUGGCCGGCCGG [Ex6 #85] (Eterna round: R97, puzzle: Exclusion 6)
apparent KD of MS2 coat protein (input ligand: FMN 200 uM): 65.3 nM
apparent KD of MS2 coat protein (input ligand: none): 28.5 nM

GGUAAGCUAGGAUAUGCUUUGGGAAAGCAUUCCUUCGAUAAACUUGAGGAUCACCCAAGUAGAAGGAGCUUCCC [salish99_ex2_r4_017] (Eterna round: R97, puzzle: Exclusion 2)
apparent KD of MS2 coat protein (input ligand: FMN 200 uM): 11.2 nM
apparent KD of MS2 coat protein (input ligand: none): 11 nM

UAACCUCGCGUCAGGAUAUGCGAGGACUGUGACGUGCAGAAGGGACAUGAGGAUCACCCAUGUGAAAGAAUUAA [Acecequ] (puzzle: Brourd's mod of Exclusion 4)
apparent KD of MS2 coat protein [2]: 20.3 nM

UCGCUGCGAGGAUAUACGUUUGCGCGCUUUCGUUUGCGCGUACAUGAGGAUCACCCAUGUAGAAGGCGCGCCGC [Apr-15 SS2-8] (puzzle: Exclusion 2)
apparent KD of MS2 coat protein [2]: 13.2 nM

AGUACUAACACGAAAGUGUUAGUACAAUAAGCUUGUGUUACAUGAGGAUCACCCAUGUCCUCAUAAGCUCGUCUUAA [Mat - Sensor v3 - Turn-off var 2 - D49] (puzzle: Sensor v3, turn-off variant 2)
apparent KD of MS2 coat protein [1]: 39.9 nM
apparent KD of MS2 coat protein [2]: 200 nM
apparent KD of MS2 coat protein [3]: 47.4 nM

ACGCAUUGCCAAAGGUAAUGCGUUACAUGAGGAUCACCCAUGUAGGAUAUGGUAGGCAAAGCUUACCAGAAGGACAUGAUAAUU [Mat - Exclusion NG 3 - Mod of JL - D7] (Eterna round: R96, puzzle: Exclusion NG 3)
apparent KD of MS2 coat protein (input ligand: FMN 200 uM): 219 nM
apparent KD of MS2 coat protein [4]: 40 nM
apparent KD of MS2 coat protein (input ligand: none): 57 nM

UGCAGACGAGGAUAUAGAUUUAGAUACAUGAGGAUCACCCAUGUAUACAUGUAUUUAGAUUUAGAAGGCGUCUGCA [E5/14-A2] (Eterna round: R97, puzzle: Exclusion 5)
apparent KD of MS2 coat protein (input ligand: FMN 200 uM): 422 nM
apparent KD of MS2 coat protein (input ligand: none): 886 nM

UCUUUCUUUGUGAGGAUAUGCCCAAAUAAAAGCGGGCAGAAGGCACAUGAGGAUCACCCAUGUCCUGCGGUUUU [salish99_bmx4_r4_147] (Eterna round: R97, puzzle: Brourd's mod of Exclusion 4)
apparent KD of MS2 coat protein (input ligand: FMN 200 uM): 174 nM
apparent KD of MS2 coat protein (input ligand: none): 16.5 nM

UUUACAAGCUAUUGAUCCCACAUGAGGAUCACCCAUGUUCAUGGCCGUGAGGCUAGGUAUACAAUUGCUCGUCUUAU [mod-JR] (Eterna round: R97, puzzle: Sensor, turn-off variant 1)
apparent KD of MS2 coat protein (input ligand: FMN 200 uM): 59.8 nM
apparent KD of MS2 coat protein (input ligand: none): 78.7 nM

AAGAAACAUGAGGAUCACCCAUGUGAGGAUAUGAGUAAGAAAAGAAAAGAAAGAAGACUCAGAAGGCACAAAGG [salish99-ex1_r3_074] (puzzle: Exclusion 1)
apparent KD of MS2 coat protein [1]: 135 nM
apparent KD of MS2 coat protein [2]: 110 nM
apparent KD of MS2 coat protein [3]: 86.8 nM

AGUAGGAGAGGAUAUACAUGAAGUCGAAAGACUUCAACUCAACAUGAGGAUCACCCAUGUAGAAGGCUCCUACA [Omei Ex2 BD A6] (Eterna round: R97, puzzle: Exclusion 2)
apparent KD of MS2 coat protein (input ligand: FMN 200 uM): 132 nM
apparent KD of MS2 coat protein (input ligand: none): 25.8 nM

UCACGGGACUGAGGAUAUACAUGAACUAUUUUUGUAGAAGGCAGAAUGUUAGAUUAUACACUAAACAUGAGGAUCACCCAUGUU [JR_ExcNG1_Sub024] (Eterna round: R96, puzzle: Exclusion NG 1)
apparent KD of MS2 coat protein [4]: 15.1 nM
